According to patent US20020128201A1 (GREEN PEPTIDE, published 2002):

Target: T1, HLA-A2402 (human, UniProt P04439-2 25-302 at identity 0.92))
T1 MHC heavy: not shown
Experiment: cell-based or functional assay

B1: Lck486-494 (peptide)
peptide: TFDYLRSVL
- lowest peptide concentration at which enhancement of IFN-γ production by KE4-CTLs was detected (peptide-pulsed ClR/A2402 cells): ~1 nM

B2: Lck488-497 (peptide)
peptide: DYLRSVLEDF
- lowest peptide concentration at which enhancement of IFN-γ production by KE4-CTLs was detected (peptide-pulsed ClR/A2402 cells): ~1 nM

B3: Lck208-216 (peptide)
peptide: HYTNASDGL
- lowest peptide concentration at which enhancement of IFN-γ production by KE4-CTLs was detected (peptide-pulsed ClR/A2402 cells): ≥ 100 nM
